Laboratory results reported in US20220125947A1 (published 2022).

These binders were tested against γδ T cell receptor on human γδ T cells (AG000003021) (human) (assay: flow cytometry, DRC binding at 37°C on human γδ T cells).
Experimental: (§1) Binding of antibodies to human γδ T cells or SKW cell lines expressing Vγ9/Vδ2, Vγ9/Vδ2 or Vγ5/Vδ2 was carried out by flow cytometry. Briefly, the cells were centrifuged at 300×g for 5 minutes and the pellet was resuspended in 34 ml fresh media (in RPMI+10% FBS). 50 μL of the cells were then plated (44K cells/well) into assay plates. Samples were incubated for one hour at 37° C. in tissue culture (TC) incubator followed by wash steps by adding 100 μl FACS staining buffer. Secondary detention antibodies (A647 conjugated anti-human IgG Fc specific antibody (2 μg/mL) along with AF488 anti mouse CD3, clone OKT3 at 1 ug/mL) were added at 50 μL/well to appropriate wells according to the plate map. After incubating for 60 minutes at 37° C. in the TC incubator, cells were again washed as described above. This is followed by resuspension in 20 μL/well running buffer containing 1:1000 dilution of Sytox blue dead cell stain and the plates were run on iQue Screener.
(§2) Gating and data analysis: Human anti-human Vγ9 antibody (VG9B2 mAb at 10 nM) was used to mark the gating of positive population. All cells were first gated for singlets on SCS-A vs. SCS-H dot plot, live/dead followed by CD3 positive population, and this subset of CD3 positive population was gated for Vγ9 positive binding using positive control mAb. Cells were also assessed for cell binding of control mAbs by RL1 (A647) Geomeans from the live cell population. Advanced metrics were used and normalization metrics were chosen to calculate fold over background wells containing secondary antibody alone (designated as ‘background’ within ForeCyt settings).

Binder | Max. Activity
VG9B46 (antibody, human IgG1, kappa, V domains shown, IgG1, kappa) VH: EVQLVESGGGLVKPGGSLRLSCEASGFTFSINSMNWVRQAPGKGLEWVSSISSTSDYIFNADSVKGRFTISRDNAKNSLYLQMNSLRAEDTAVYYCVRDDVFGAFDIWGQGTMVTVSS VL: EIVLTQSPGTLSLSPGERATLSCRTSQSVSRSYLGWYQQKPGQPPRLLIFGSSSRATGIPDRFSGSGSGTDFTLTISRLEPEDFAVYYCQQYSRSPLTFGGGTKVDIKR | 3210 fold over background
VG9B429 (antibody, human IgG1, kappa, IgG1, kappa) heavy: not shown light: DIQMTQSPSSVSASVGDRVTITCRASQGINSWLAWYQQKPGNAPKLLIYAASSLQSGVPSRFSGIGSGTDFIFTISSLQPEDFASYYCQQANSFPWTFGQGTRLEIKRTVAAPSVFIFPPSDEQLKSGTASVVCLLNNFYPREAKVQWKVDNALQSGNSQESVTEQDSKDSTYSLSSTLTLSKADYEKHKVYACEVTHQGLSSPVTKSFNRGEC | 3640 fold over background
VG9B414 (antibody, human IgG1, kappa, IgG1, kappa) heavy: not shown light: EIVMTQSPSSVSASVGDRVTITCRASQGINSWLAWYQQKPGNAPKLLIYAASSLQSGVPSRFSGIGSGTDFIFTISSLQPEDFASYYCQQANSFPWTFGQGTRLEIKRTVAAPSVFIFPPSDEQLKSGTASVVCLLNNFYPREAKVQWKVDNALQSGNSQESVTEQDSKDSTYSLSSTLTLSKADYEKHKVYACEVTHQGLSSPVTKSFNRGEC | 3300 fold over background
VG9B104 (antibody, human IgG1, kappa, V domains shown, IgG1, kappa) VH: EVQLVESGGGLVKPGGSLRLSCAASGFTFSVYSMNWVRQAPGKGLEWVSSIGSSSSYIFYADSVKGRFTISRDNAKNSLYLQMNSLRAEDTAVYYCGRDHDYGGLDYWGQGTLVTVSS VL: EIVLTQSPGTLSLSPGERATLSCRASQSVSSSYLAWYQQKPGQAPRLLIYGPSNRATDIPDRFSGTGSGTDFTLTISRLEPEDFAVYYCQQYGRSPLTFGGGTKVEIKR | 3050 fold over background
VG9B198 (antibody, human IgG1, lambda, V domains shown, IgG1, lambda) VH: QVQLQESGPGLVKPSETLSLTCTVSGDSISSIYWSWIRQSAGKGLEWIGRIYTTDITNYNPSLKSRVTMSADTSKNQLSLKLTSVTAADTAVYYCAKNGYSYGGFNYWGQGTLVTVSS VL: QSVLTQPPSVSGAPGQRVTISCTGSSSNIGAGYDVHWYQRLPGTAPKLLIYGDSYRPSGVPDRFSGSKSGTSASLAITGLQAEDEADYYCQSYDSSLSVVVFGGGTKLTVLG | 3040 fold over background
VG9B195 (antibody, human IgG1, lambda, V domains shown, IgG1, lambda) VH: EVQLVESGGGLVKPGGSLRLSCAASGFTFSPYTMNWVRQAPGKGLEWVSSISSSSSYMYYADSVKGRFTISRDNAKNSLYLQMNSLRAEDTAVYYCARDGDLVGPTYYFDYWGQGTLVTVSS VL: SYELMQPPSVSVSPGQTASITCSGDKLGDKYACWYQQKPGQSPVLVIYQHNKRPSGIPERFSGSNSGKTATLTISGTQAMDEADYYCQAWDSTTVVFGGGTKLTVLG | 3260 fold over background
VG9B416 (antibody, human IgG1, kappa, IgG1, kappa) heavy: not shown light: EIVLTQSPGTLSLSPGDRATLSCRASQSVASSYLAWYQQKPGQSPRLLIYGASSRATGIPDRFSGSGSGTDFTLTISRLEPEDFAVYYCQQYGSSPPYTFGQGTKLEIKRTVAAPSVFIFPPSDEQLKSGTASVVCLLNNFYPREAKVQWKVDNALQSGNSQESVTEQDSKDSTYSLSSTLTLSKADYEKHKVYACEVTHQGLSSPVTKSFNRGEC | 3120 fold over background

Further lines, results first:

Max. Activity | Binder
3480 fold over background | VG9B80 (antibody, human IgG1, kappa, V domains shown, IgG1, kappa) VH: EVQLVQSGGGLVKSGGSLRLSCAASGFTFSTYSMNWVRQAPGKGLEWVSSISSSSSYIFYADSVKGRIIISRDNAKNSLYLQMNSVRADDTAVYYCAKDGELGVFDYWGQGTLVTVSS VL: EIVLTQSPGTLSLSAGERATLSCRASQSISSSYLAWYQQKPGQAPRVLIYGPSGRATGIPDRFRGSGSGTDFTLTISRLEPEDFAVYYCQQFGRSPLTFGGGTKVEIKR
4290 fold over background | VG9B54 (antibody, human IgG1, kappa, V domains shown, IgG1, kappa) VH: EVQLVESGGGLVKPGGSLRLSCAASGFAFSSYSLTWVRQAPGKGLEWVSSISSSSSYIFYADSVKGRFTISRDNAKNSLYLQMNSLRAEDTAVYYCATDGELGPFDYWGQGTTVTVSS VL: EIVMTQSPGTLSLSPGERATLSCRASQSVSSSYLAWFQQKPGQAPRRLIYGASSRATGIPDRFSGSGSGTDFTLTISRLEPEDFAVYYCQQYGRSPLTFGGGTKVEIKR
3110 fold over background | VG9B69 (antibody, human IgG1, kappa, V domains shown, IgG1, kappa) VH: EVQLVESGGGLVKPGGSLRLSCAASGFTFSSYDINWVRQAPGKGLEWVSSITSSSYYIYYADSVKGRFTISRDNAKNSLYLQMNSLRAEDTAVYYCARDLGVRGVDYYYYGLDVWGQGTMVTVSS VL: not shown
3230 fold over background | VG9B140 (antibody, human IgG1, kappa, V domains shown, IgG1, kappa) VH: EVQLVESGGGLVKPGGSLRLSCAGSGFTFRSYDMNWVRQAPGKGLEWVSSISTSSGYIYYADSVKGRFTISRDNAKNSLSLQMNSLRAEDTAVFYCARDRGIAVAGDYYYGMDVWGQGTMVTVSS VL: not shown

The binders below were run against T1, γδ T cell receptor on human γδ T cells (human) (assay: flow cytometry, dose-response binding at 37 C on human γδ T cells).
T1 construct: also called AG000003021 (γδ T cells)
Experimental: as §1, §2

Max. Activity | Binder
2970 fold over background | VG9B430 (antibody, human IgG1, kappa, V domains shown, IgG1, kappa; also called antibody #19) VH: EVQLLESGGGLVKPGGSLRLSCSASGFTFSSYDMNWVRQAPGKGLEWVSSISSSSSYIYYADSVKGRFTISRDNAKNSLYLQMNSLRAEDTAVYHCARDVGVTTDYYYYGMDVWGQGTMVTVSS VL: EIVLTQSPGTLSLSPGDRATLSCRASQSVASSYLAWYQQKPGQSPRLLIYGASSRATGIPDRFSGSGSGTDFTLTISRLEPEDFAVYYCQQYGSSPPYTFGQGTKLEIKR
2840 fold over background | VG9B73 (antibody, human IgG1, kappa, V domains shown, IgG1, kappa; also called antibody #22) VH: EVQLVQSGGGLVKPGGSLRLSCAASGFTFSNYDMNWVRQAPGKGLEWVSSISSSSSYIYYADSVKGRFTISRDNARNSLFLQMSSLRAEDTAVYYCAREIGVTGTTYYQDYGMDVWGQGTTVTVSS VL: EIVMTQSPGTLSLSPGERATLSCRASQSFSSNYLAWYQQKPGQAPRLLIYGASSRATGIPDRFSGSGSGTDFTLTISRLEPEDFALYYCQQYGSSPPFTFGQGTKVEIKR
2840 fold over background | VG9B133 (antibody, human IgG1, kappa, V domains shown, IgG1, kappa; also called antibody #23) VH: EVQLVESGGGLVKPGGSLRLSCAAAGFTFSNYDMNWVRQVPGKGLEWVSSISSSSSYIYYADSVKGRFTISRDNAKNSLYLQMNTLRAEDTAVYYCARDLGITGTTMDYYYGMDVWGQGTMVTVSS VL: not shown
2880 fold over background | VG9B98 (antibody, human IgG1, kappa, V domains shown, IgG1, kappa; also called antibody #21) VH: EVQLVQSGGDLVKSGGSLRLSCAASGFTFSSYSMYWVRQAPGKGLEWVSSIGSSSTYIFYADSVKGRFTISRDNAMTSLYLQMNRLGAEDSAVYYCARDGELGPFEYWGQGTLVTVSS VL: EIVLTQSPGTLSLSPGERATLSCRASQSVSTSYLAWFQQKPGQAPRLLIFGTSSRATGIPDRFSGSGSGTDFTLTISRLEPEDFAVYHCLQYGRSPLTFGGGTKVDIKR
2980 fold over background | VG9B428 (antibody, human IgG1, kappa, IgG1, kappa; also called antibody #18) heavy: not shown light: EIVMTQSPSSVSASVGDRVTITCRASQGINSWLAWYQQKPGNAPKLLIYAASSLQSGVPSRFSGIGSGTDFIFTISSLQPEDFASYYCQQANSFPWTFGQGTKVEIKRTVAAPSVFIFPPSDEQLKSGTASVVCLLNNFYPREAKVQWKVDNALQSGNSQESVTEQDSKDSTYSLSSTLTLSKADYEKHKVYACEVTHQGLSSPVTKSFNRGEC
2470 fold over background | VG9B413 (antibody, human IgG1, kappa, IgG1, kappa; also called antibody #37) heavy: not shown light: EIVMTQSPGTLSLSPGDRATLSCRASQSVASSYLAWYQQKPGQSPRLLIYGASSRATGIPDRFSGSGSGTDFTLTISRLEPEDFAVYYCQQYGSSPPYTFGQGTKVEIKRTVAAPSVFIFPPSDEQLKSGTASVVCLLNNFYPREAKVQWKVDNALQSGNSQESVTEQDSKDSTYSLSSTLTLSKADYEKHKVYACEVTHQGLSSPVTKSFNRGEC
